Numbering of substitutions follows the chain as printed.

T1: LIN7A, O14910
T1 sequence (O14910 103-200, limits assumed, looked up): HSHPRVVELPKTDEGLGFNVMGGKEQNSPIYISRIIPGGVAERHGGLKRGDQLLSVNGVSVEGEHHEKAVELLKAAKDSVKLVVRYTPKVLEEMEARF

T2: GRIP1_7, Q9Y3R0
T2 sequence (Q9Y3R0 999-1096, limits assumed, looked up): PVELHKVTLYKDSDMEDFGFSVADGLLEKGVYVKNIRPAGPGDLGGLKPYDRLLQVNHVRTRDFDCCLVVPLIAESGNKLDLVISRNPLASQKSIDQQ

T3: RAPGEF6, Q8TEU7
T3 sequence (Q8TEU7 525-625, limits assumed, looked up): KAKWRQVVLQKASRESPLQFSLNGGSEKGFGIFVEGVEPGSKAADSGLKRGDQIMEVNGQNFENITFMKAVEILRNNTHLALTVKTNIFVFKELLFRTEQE

T4: GRIP1_4, Q9Y3R0
T4 sequence (Q9Y3R0 467-571, limits assumed, looked up): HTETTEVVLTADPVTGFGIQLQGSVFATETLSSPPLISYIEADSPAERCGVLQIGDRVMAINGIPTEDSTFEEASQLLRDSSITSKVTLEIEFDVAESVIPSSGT

T5: PDZD2_2, O15018
T5 sequence (O15018 329-429, limits assumed, looked up): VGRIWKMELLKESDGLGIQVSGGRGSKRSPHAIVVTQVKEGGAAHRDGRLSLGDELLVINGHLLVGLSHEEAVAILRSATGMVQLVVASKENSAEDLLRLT

T6: PTPN13_1, Q12923
T6 sequence (Q12923 1088-1188, limits assumed, looked up): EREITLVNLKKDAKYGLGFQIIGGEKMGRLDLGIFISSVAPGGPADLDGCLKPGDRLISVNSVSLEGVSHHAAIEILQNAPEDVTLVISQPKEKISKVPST

T7: SNTB1, Q13884
T7 sequence (Q13884 107-205, limits assumed, looked up): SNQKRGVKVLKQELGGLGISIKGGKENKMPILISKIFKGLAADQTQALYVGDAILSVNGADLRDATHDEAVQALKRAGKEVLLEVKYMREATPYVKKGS

T8: NHERF3_3, Q5T2W1
T8 sequence (Q5T2W1 238-333, limits assumed, looked up): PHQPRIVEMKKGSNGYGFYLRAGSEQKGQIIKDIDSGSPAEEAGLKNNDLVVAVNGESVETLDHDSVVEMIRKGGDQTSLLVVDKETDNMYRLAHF

T9: SNTG1, Q9NSN8
T9 sequence (Q9NSN8 52-150, limits assumed, looked up): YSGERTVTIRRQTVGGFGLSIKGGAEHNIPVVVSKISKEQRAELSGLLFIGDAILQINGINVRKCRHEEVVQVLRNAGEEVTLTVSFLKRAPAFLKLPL

T10: MPDZ_5, O75970
T10 sequence (O75970 695-796, limits assumed, looked up): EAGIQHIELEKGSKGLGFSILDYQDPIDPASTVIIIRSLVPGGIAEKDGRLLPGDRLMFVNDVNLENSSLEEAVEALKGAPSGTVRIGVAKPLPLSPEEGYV

T11: DFNB31_3, Q9P202
T11 sequence (Q9P202 811-907, limits assumed, looked up): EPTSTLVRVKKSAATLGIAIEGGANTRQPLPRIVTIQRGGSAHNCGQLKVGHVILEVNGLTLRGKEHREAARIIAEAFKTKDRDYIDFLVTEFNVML

T12: LIN7C, Q9NUP9
T12 sequence (Q9NUP9 88-185, limits assumed, looked up): T1 sequence (O14910 103-200, limits assumed, looked up) with D13E, V20I, V40I, E42D, K77Q, D78G, S79K, A96S

T13: SYNJ2BP, P57105
T13 sequence (P57105 8-110, limits assumed, looked up): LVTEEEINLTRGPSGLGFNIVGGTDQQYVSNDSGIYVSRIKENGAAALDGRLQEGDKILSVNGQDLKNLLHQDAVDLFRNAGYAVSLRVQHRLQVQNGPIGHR

B1: GRIA3, P42263 (peptide)
chain: NVYGTESVKI
B2: DENND5A, Q6IQ26 (peptide)
chain: ETSLVKGIDI

Chain of TJP1_3, Q07157 (Q07157 416-512): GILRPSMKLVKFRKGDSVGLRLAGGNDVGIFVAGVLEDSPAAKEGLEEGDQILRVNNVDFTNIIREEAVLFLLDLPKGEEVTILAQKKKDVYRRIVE
Chain of LNX1_3, Q8TBB1 (Q8TBB1 500-596): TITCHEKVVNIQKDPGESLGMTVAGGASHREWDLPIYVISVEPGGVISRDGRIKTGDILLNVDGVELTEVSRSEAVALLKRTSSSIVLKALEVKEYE
Chain of Inadl_5, Q8NI35 (Q8NI35 673-780): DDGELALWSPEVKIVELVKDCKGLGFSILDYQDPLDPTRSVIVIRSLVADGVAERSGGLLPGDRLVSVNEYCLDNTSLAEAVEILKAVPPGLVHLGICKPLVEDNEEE
Chain of PICK1, Q9NRD5 (Q9NRD5 17-115): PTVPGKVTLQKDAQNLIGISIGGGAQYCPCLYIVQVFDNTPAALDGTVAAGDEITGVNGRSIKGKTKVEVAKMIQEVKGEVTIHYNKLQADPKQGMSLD

The first experiment addresses T1, LIN7A, O14910. The experiment can be described thus: holdup assay. The note with it: plain residues with an end cap or a label only (N-terminal biotin on a linker: ado-ado). The arrangement: key: below the threshold = too weak to quantify, mostly under pKd 3.1 to 4.
In the case of B1, the pKd entry is reported as “below the threshold”.

B2: the negative-log Kd (pKd) result is “below the threshold”.

A further experiment concerns the target TJP1_3, Q07157. The experiment can be described thus: holdup assay. The note with it: plain residues with an end cap or a label only (N-terminal biotin on a linker: ado-ado). Also on record: key: below the threshold = too weak to quantify, mostly under pKd 3.1 to 4.
B1: the pKd result is given as “below the threshold”.

Consider B2, for which the pKd result is given as “below the threshold”.

The target in the next experiment is FRMPD3, Q5JV73. The experiment can be described thus: holdup assay. The arrangement: key: below the threshold = too weak to quantify, mostly under pKd 3.1 to 4. The conditions noted are these: plain residues with an end cap or a label only (N-terminal biotin on a linker: ado-ado).
Chain of FRMPD3, Q5JV73 (Q5JV73 12-100): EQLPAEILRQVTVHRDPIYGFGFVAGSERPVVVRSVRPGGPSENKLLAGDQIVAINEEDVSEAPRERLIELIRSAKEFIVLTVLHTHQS
For the molecule B1, the pKd result is “below the threshold”.

Regarding B2, the pKd result is “below the threshold”.

In a further experiment the target is MAST2, Q6P0Q8. As to the kind of experiment: holdup assay. Also on record: key: below the threshold = too weak to quantify, mostly under pKd 3.1 to 4. The conditions noted are these: plain residues with an end cap or a label only (N-terminal biotin on a linker: ado-ado).
Chain of MAST2, Q6P0Q8 (Q6P0Q8 1099-1202): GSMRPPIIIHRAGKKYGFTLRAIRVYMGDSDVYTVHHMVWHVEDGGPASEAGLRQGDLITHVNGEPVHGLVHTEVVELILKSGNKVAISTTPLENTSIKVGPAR
For the molecule B1, the pKd turned out to be 3.81.

Take B2: the pKd entry is recorded as “below the threshold”.

A further experiment deals with FRMPD2_2, Q68DX3. As to the kind of experiment: holdup assay. Also on record: key: below the threshold = too weak to quantify, mostly under pKd 3.1 to 4. The note with it: plain residues with an end cap or a label only (N-terminal biotin on a linker: ado-ado).
Chain of FRMPD2_2, Q68DX3 (Q68DX3 944-1038): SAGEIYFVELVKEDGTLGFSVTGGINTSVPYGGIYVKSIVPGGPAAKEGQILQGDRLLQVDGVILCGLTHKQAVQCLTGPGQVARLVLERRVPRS
For B1, the negative logarithm of the Kd (pKd) result is “below the threshold”.

As for B2, the pKd result was “below the threshold”.

A further experiment addresses T2, GRIP1_7, Q9Y3R0. As to the kind of experiment: holdup assay. Also on record: key: below the threshold = too weak to quantify, mostly under pKd 3.1 to 4. The conditions noted are these: plain residues with an end cap or a label only (N-terminal biotin on a linker: ado-ado).
Consider B1, for which the pKd result is reported as “below the threshold”.

In the case of B2, the negative logarithm of the Kd (pKd) entry was “below the threshold”.

For a further experiment, the target named is T3, RAPGEF6, Q8TEU7. The experiment can be described thus: holdup assay. The arrangement: key: below the threshold = too weak to quantify, mostly under pKd 3.1 to 4. The conditions noted are these: plain residues with an end cap or a label only (N-terminal biotin on a linker: ado-ado).
Regarding B1, the pKd entry is given as “below the threshold”.

Regarding B2, the pKd result is reported as “below the threshold”.

In another experiment the target is T4, GRIP1_4, Q9Y3R0. The experiment can be described thus: holdup assay. The arrangement: key: below the threshold = too weak to quantify, mostly under pKd 3.1 to 4. The note with it: plain residues with an end cap or a label only (N-terminal biotin on a linker: ado-ado).
As to B1, the pKd entry was “below the threshold”.

For the molecule B2, the pKd entry is “below the threshold”.

A further experiment addresses T5, PDZD2_2, O15018. As to the kind of experiment: holdup assay. The conditions noted are these: plain residues with an end cap or a label only (N-terminal biotin on a linker: ado-ado). The arrangement: key: below the threshold = too weak to quantify, mostly under pKd 3.1 to 4.
In the case of B1, the negative logarithm of the Kd (pKd) result is given as “below the threshold”.

As to B2, the pKd came out at 4.

In the next experiment the target is GRID2IP_1, A4D2P6. The experiment can be described thus: holdup assay. Also on record: key: below the threshold = too weak to quantify, mostly under pKd 3.1 to 4. The note with it: plain residues with an end cap or a label only (N-terminal biotin on a linker: ado-ado).
Chain of GRID2IP_1, A4D2P6 (A4D2P6 1-87): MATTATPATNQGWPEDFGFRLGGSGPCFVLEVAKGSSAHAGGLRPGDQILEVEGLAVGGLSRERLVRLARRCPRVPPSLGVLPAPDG
Turning to B1, the pKd entry is listed as “below the threshold”.

Turning to B2, the pKd result was “below the threshold”.

The next experiment concerns the target T6, PTPN13_1, Q12923. As to the kind of experiment: holdup assay. Also on record: key: below the threshold = too weak to quantify, mostly under pKd 3.1 to 4. The conditions noted are these: plain residues with an end cap or a label only (N-terminal biotin on a linker: ado-ado).
For the molecule B1, the pKd result is on record as “below the threshold”.

As to B2, the pKd entry was “below the threshold”.

The next experiment addresses LNX1_3, Q8TBB1. As to the kind of experiment: holdup assay. The arrangement: key: below the threshold = too weak to quantify, mostly under pKd 3.1 to 4. The conditions noted are these: plain residues with an end cap or a label only (N-terminal biotin on a linker: ado-ado).
For B1, the pKd entry is given as “below the threshold”.

Turning to B2, the negative logarithm of the Kd (pKd) result is “below the threshold”.

Another experiment addresses Inadl_5, Q8NI35. The experiment can be described thus: holdup assay. The arrangement: key: below the threshold = too weak to quantify, mostly under pKd 3.1 to 4. The note with it: plain residues with an end cap or a label only (N-terminal biotin on a linker: ado-ado).
With B1, the pKd result was “below the threshold”.

Take B2: the pKd result is “below the threshold”.

The next experiment concerns the target PICK1, Q9NRD5. The experiment can be described thus: holdup assay. The arrangement: key: below the threshold = too weak to quantify, mostly under pKd 3.1 to 4. The note with it: plain residues with an end cap or a label only (N-terminal biotin on a linker: ado-ado).
As to B1, the pKd result is recorded as “below the threshold”.

Take B2: the pKd result is reported as “below the threshold”.

The next experiment deals with MAGI2_5, Q86UL8. As to the kind of experiment: holdup assay. Also on record: key: below the threshold = too weak to quantify, mostly under pKd 3.1 to 4. The note with it: plain residues with an end cap or a label only (N-terminal biotin on a linker: ado-ado).
Chain of MAGI2_5, Q86UL8 (Q86UL8 915-1017): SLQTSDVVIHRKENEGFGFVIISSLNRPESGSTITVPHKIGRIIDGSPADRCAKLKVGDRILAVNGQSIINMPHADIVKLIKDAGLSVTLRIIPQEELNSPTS
On to B1, for which the pKd entry is given as “below the threshold”.

With B2, the negative-log Kd (pKd) entry was “below the threshold”.

The target in another experiment is T7, SNTB1, Q13884. The experiment can be described thus: holdup assay. The arrangement: key: below the threshold = too weak to quantify, mostly under pKd 3.1 to 4. The note with it: plain residues with an end cap or a label only (N-terminal biotin on a linker: ado-ado).
Consider B1, for which the negative logarithm of the Kd (pKd) entry is given as “below the threshold”.

In the case of B2, the pKd entry is recorded as “below the threshold”.

A further experiment has as its target GORASP2, Q9H8Y8. The experiment can be described thus: holdup assay. Also on record: key: below the threshold = too weak to quantify, mostly under pKd 3.1 to 4. The conditions noted are these: plain residues with an end cap or a label only (N-terminal biotin on a linker: ado-ado).
In turn, B1 had a pKd of 3.51.

Consider B2, for which the negative logarithm of the Kd (pKd) turned out to be 3.79.

The next experiment concerns the target T8, NHERF3_3, Q5T2W1. As to the kind of experiment: holdup assay. The arrangement: key: below the threshold = too weak to quantify, mostly under pKd 3.1 to 4. The note with it: plain residues with an end cap or a label only (N-terminal biotin on a linker: ado-ado).
In the case of B1, the pKd result is “below the threshold”.

Take B2: the negative-log Kd (pKd) result is reported as “below the threshold”.

A further experiment has as its target T9, SNTG1, Q9NSN8. The experiment can be described thus: holdup assay. The arrangement: key: below the threshold = too weak to quantify, mostly under pKd 3.1 to 4. The conditions noted are these: plain residues with an end cap or a label only (N-terminal biotin on a linker: ado-ado).
Turning to B1, the pKd entry is reported as “below the threshold”.

As for B2, the negative-log Kd (pKd) entry is listed as “below the threshold”.

The target in another experiment is AHNAK1, Q09666. As to the kind of experiment: holdup assay. Also on record: key: below the threshold = too weak to quantify, mostly under pKd 3.1 to 4. The note with it: plain residues with an end cap or a label only (N-terminal biotin on a linker: ado-ado).
Chain of AHNAK1, Q09666 (Q09666 4-100): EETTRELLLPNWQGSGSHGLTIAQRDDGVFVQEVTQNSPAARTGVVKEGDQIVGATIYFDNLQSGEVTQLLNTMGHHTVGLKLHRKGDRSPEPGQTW
B1: the pKd entry is given as “below the threshold”.

In the case of B2, the pKd entry is recorded as “below the threshold”.

The target of the next experiment is T10, MPDZ_5, O75970. The experiment can be described thus: holdup assay. The arrangement: key: below the threshold = too weak to quantify, mostly under pKd 3.1 to 4. The note with it: plain residues with an end cap or a label only (N-terminal biotin on a linker: ado-ado).
Consider B1, for which the pKd entry was “below the threshold”.

As to B2, the pKd entry is on record as “below the threshold”.

A further experiment concerns the target T11, DFNB31_3, Q9P202. As to the kind of experiment: holdup assay. The note with it: plain residues with an end cap or a label only (N-terminal biotin on a linker: ado-ado). The arrangement: key: below the threshold = too weak to quantify, mostly under pKd 3.1 to 4.
For the molecule B1, the pKd result is “below the threshold”.

As for B2, the pKd entry was “below the threshold”.

The target in a further experiment is T12, LIN7C, Q9NUP9. The experiment can be described thus: holdup assay. The conditions noted are these: plain residues with an end cap or a label only (N-terminal biotin on a linker: ado-ado). The arrangement: key: below the threshold = too weak to quantify, mostly under pKd 3.1 to 4.
On to B1, for which the pKd result is “below the threshold”.

In the case of B2, the pKd entry is “below the threshold”.

The target in the next experiment is T13, SYNJ2BP, P57105. The experiment can be described thus: holdup assay. The note with it: plain residues with an end cap or a label only (N-terminal biotin on a linker: ado-ado). The arrangement: key: below the threshold = too weak to quantify, mostly under pKd 3.1 to 4.
Consider B1, for which the pKd result is “below the threshold”.

Turning to B2, the pKd result was “below the threshold”.

Source of the values: PMC9482650, “Quantitative fragmentomics allow affinity mapping of interactomes” (Nature Communications, 2022).
